Results on seven molecules are retold here after patent publication US20220185894A1 (F STAR THERAPEUTICS, published 2022).

Residue numbers refer to the chain shown, from its start.

Assay [1] concerns the target T1, recombinant Fc-tagged human LAG-3 (R&D Systems, 2319-L3-050) (human, UniProt P18627 23-450).
T1 construct: Bought protein; also called LAG-3 Fc; human LAG-3-Fc; not shown: Fc tag of the bought fusion protein
T1 sequence: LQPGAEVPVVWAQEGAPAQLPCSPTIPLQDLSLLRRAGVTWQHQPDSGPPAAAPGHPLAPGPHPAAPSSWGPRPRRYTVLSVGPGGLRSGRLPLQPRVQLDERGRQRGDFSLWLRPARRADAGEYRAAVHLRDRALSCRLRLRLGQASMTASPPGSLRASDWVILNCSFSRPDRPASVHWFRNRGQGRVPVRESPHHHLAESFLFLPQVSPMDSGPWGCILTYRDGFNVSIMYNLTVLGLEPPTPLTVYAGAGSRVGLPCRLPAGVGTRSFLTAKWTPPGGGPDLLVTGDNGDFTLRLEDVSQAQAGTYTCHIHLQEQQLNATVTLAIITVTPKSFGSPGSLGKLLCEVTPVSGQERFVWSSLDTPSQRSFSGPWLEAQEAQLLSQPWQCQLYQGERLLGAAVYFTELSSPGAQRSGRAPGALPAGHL
The assay is described as follows: SPR, mAb captured on Protein L, human LAG-3 Fc injected (from 0.5 nM). The procedure: Protein L (Thermo, 21189) was immobilized on flow cells 1 and 2 of a Series S CM5 chip (GE Healthcare, BR-1005-30) by amine coupling (GE Healthcare, BR-1000-50) to a surface density of 2000 RU by following the manufacturer's instructions for the BIAcore T200 instrument. […] The association time was 3 min and the dissociation time was 6 min. Running buffer was HBS-P (GE Healthcare, BR-1003-68). Both flow cells were regenerated by injecting 10 mM sodium hydroxide (NaOH) at a flow rate of 100 μl/min for 20 seconds. The data were analysed by double referencing against the blank flow cell.
The binding kinetics were fit with a 1:1 Langmuir model to generate binding association (kₐ) and dissociation (kd) rates. Equilibrium binding constants (KD) were calculated by dividing the dissociation rate by the association rate for each sample. Data analysis was performed with BiaEvaluation software version 3.2.
(SPR reads the build-up and loss of mass on a sensor chip optically.)

For assay [2], the target named is T2, human PD-L1 Fc (R&D Systems, 156-B7) (human, UniProt Q9NZQ7 19-239).
T2 construct: Bought protein; not shown: Fc tag of the bought fusion protein
T2 sequence (Q9NZQ7 19-239 limits assumed): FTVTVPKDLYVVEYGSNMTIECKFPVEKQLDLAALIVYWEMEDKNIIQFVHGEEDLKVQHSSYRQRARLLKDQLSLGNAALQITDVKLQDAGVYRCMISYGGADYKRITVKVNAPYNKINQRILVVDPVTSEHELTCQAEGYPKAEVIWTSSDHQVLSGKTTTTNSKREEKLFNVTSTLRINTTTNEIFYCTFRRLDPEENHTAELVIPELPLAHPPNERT
The assay is described as follows: SPR, BIAcore T200; mAb captured on Protein L, PD-L1 Fc injected.

The target of assay [3] is T3, mouse LAG-3 expressed on cells (mouse, UniProt Q61790 24-521).
T3 construct: also called mLAG-3; murine LAG-3 HEK
T3 sequence: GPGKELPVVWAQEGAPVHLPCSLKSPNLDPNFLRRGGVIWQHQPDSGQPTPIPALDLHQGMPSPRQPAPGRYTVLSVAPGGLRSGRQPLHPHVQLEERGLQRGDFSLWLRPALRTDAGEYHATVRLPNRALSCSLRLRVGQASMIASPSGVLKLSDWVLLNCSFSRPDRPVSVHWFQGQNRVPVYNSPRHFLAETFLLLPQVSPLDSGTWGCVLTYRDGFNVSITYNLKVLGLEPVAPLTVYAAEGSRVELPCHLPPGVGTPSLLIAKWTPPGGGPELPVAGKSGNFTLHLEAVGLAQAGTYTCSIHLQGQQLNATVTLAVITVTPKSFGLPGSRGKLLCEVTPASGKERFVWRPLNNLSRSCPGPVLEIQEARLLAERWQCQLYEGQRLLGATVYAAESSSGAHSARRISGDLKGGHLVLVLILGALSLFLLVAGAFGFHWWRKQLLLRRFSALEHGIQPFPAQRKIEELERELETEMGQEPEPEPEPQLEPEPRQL
Briefly: flow cytometry on HEK cells expressing mouse LAG-3. The procedure: HEK cells expressing mLAG-3 grown in DMEM (Life Technologies, 61965-026) containing 10% FBS (Life Technologies, 10270-1-6), 100 μg/ml Hygromycin B (Melford Laboratories Ltd, Z2475), 15 μg/ml Blasticidin (Melford Laboratories Ltd, B1105) and 1 μg/ml Doxycyclin (Sigma, D9891) were detached from tissue culture flasks using cell dissociation buffer (Life Technologies, 13151-014). Cells were collected by centrifuged at 1500 rpm for 3 min at 4° C. to pellet the cells and then resuspended in 1×DPBS then seeded in V-bottom 96-well plates (Costar, 3897) at 1.2×10⁵ cells/well in 30 μl. A 1:1 volume of a dilution series of the mAb² (or control mAb) was added and incubated with the cells for 1 h at 4° C. The plates were washed and secondary antibody (Anti-human Fc-488, Jackson ImmunoResearch, 109-546-098) was diluted 1:1000 in PBS and 60 μl was added to the cells for 30 min at 4° C. (plates were kept in the dark). The plates were then washed and the cells resuspended in 60 μl PBS containing 1 μg/ml DAPI (Biotium, 40043). The plates were read using Canto II flow cytometer (BD Bioscience). Dead cells were excluded and the fluorescence in the FITC channel (488 nm/530/30) was measured. The data was fitted using log (agonist) vs response in GraphPad Prism Software.

In assay [4] the target is T3, mouse LAG-3 expressed on cells. Briefly: flow cytometry on HEK cells expressing mouse LAG-3. The procedure: The plates were centrifuged at 1500 rpm for 3 min at 4° C. to pellet the cells. […] (plates were kept in the dark). […] The plates were read using Canto II flow cytometer (BD Bioscience). Dead cells were excluded and the fluorescence in the FITC channel (488 nm/530/30) was measured. The data was fit using log (agonist) vs response in GraphPad Prism Software.
This is another data set of the same source.

Assay [5] concerns the target T4, mouse LAG-3 Fc (R&D Systems, 3328-L3-050) (mouse, UniProt Q61790 24-442).
T4 construct: Bought protein; also called mLAG-3 Fc; murine LAG-3Fc; not shown: Fc tag of the bought fusion protein
T4 sequence: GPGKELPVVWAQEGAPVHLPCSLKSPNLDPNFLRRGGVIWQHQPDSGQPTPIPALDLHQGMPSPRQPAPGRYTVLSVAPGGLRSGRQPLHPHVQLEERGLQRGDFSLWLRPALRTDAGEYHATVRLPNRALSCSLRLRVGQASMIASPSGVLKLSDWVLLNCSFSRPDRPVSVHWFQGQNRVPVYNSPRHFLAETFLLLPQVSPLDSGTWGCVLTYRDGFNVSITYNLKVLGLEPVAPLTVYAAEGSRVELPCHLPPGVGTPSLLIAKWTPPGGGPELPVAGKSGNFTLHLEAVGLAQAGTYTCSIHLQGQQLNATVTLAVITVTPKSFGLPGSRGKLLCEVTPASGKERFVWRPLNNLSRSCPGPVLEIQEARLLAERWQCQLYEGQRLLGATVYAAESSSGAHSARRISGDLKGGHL
Briefly: SPR, Biacore 3000; mLAG-3 Fc immobilised, Fcab injected. The method, then:
A Biacore 3000 (GE Healthcare) was used to measure the affinity of the surrogate Fcabs specific for mouse LAG-3 to mouse LAG-3. […] Fcabs were diluted in HBS-P buffer (GE Healthcare, BR-1003-68) and injected at various concentrations (fourfold dilutions from 100 nM) for 3 min at 20 μl/min and then allowed to dissociate in buffer for 12 min. The chip was regenerated by injection of 10 mM glycine pH 2.5 for 30 s at 30 μl/min. Data was double reference subtracted and analyzed using BIAevaluation 3.2 software to calculate kinetic constants.

The target in assay [6] is T4, mouse LAG-3 Fc (R&D Systems, …). The assay is described as follows: flow cytometry; inhibition of mouse LAG-3 Fc binding to MHC class II on A375 cells. The method, then: (§1) The plates were centrifuged at 1500 rpm for 3 min at 4° C. to pellet the cells. […] LAG-3/Fcab mix was added to the A375 cells and incubated for 1 h at 4° C. Cells were washed. Secondary antibody (Alexa Fluor 488 conjugated goat anti-human Fc F(ab′)₂, Jackson Immunoresearch, 109-546-098 or Goat anti-mouse IgG (H+L) 488 conjugate, Life Technologies, A-1101) was diluted 1:1000 in PBS and 100 μl was added to the cells for 30 min at 4° C. (plates were kept in the dark). Cells were washed once in PBS and resuspended in 100 μl PBS+1 μg/ml DAPI (Biotium, 40043). The plates were read on a BD FACSCanto II cytometer (BD Biosciences) and the data analysed using FlowJo software.
Background: Flow cytometry measures light scatter and fluorescence of single cells or particles in a stream.

The target of assay [7] is T1, recombinant Fc-tagged human LAG-3 (R&D …). Briefly: flow cytometry; inhibition of human LAG-3 Fc binding to MHC class II on A375 cells. The method, then:
as §1

Assay [8] has as its target T3, mouse LAG-3 expressed on cells. Briefly: flow cytometry on HEK cells expressing murine LAG-3. The method, then: (§2) The affinity of the mAb² (all containing the LALA mutations) binding to cell expressed murine LAG-3 or murine PD-L1 was determined using flow cytometry. HEK cells expressing murine LAG-3 or murine PD-L1 grown in DMEM (Life Technologies, 61965-026) containing 10% FBS (Life Technologies, 10270-1-6), 100 μg/ml Hygromycin B (Melford Laboratories Ltd, Z2475), 15 μg/ml Blasticidin (Melford Laboratories Ltd, B1105) and 1 μg/ml Doxycyclin (Sigma, D9891) were detached from tissue culture flasks using cell dissociation buffer (Life Technologies, 13151-014) and seeded in V-bottom 96-well plates (Costar, 3897) at 2×10⁵ cells/well. The plates were centrifuged at 1500 rpm for 3 min at 4° C. to pellet the cells. A dilution series of the mAb² (or control mAb) were incubated with the cells in a 60 μl volume for 1 h at 4° C. The plates were washed and secondary antibody (Anti-human Fc-488, Jackson ImmunoResearch, 109-546-098 for mAb² or Anti-Rat IgG (H+L), Alexa Fluor 488, ThermoFisher, A-11006 for anti-LAG-3 control, C9B7W) was diluted 1:1000 in PBS and 50 μl was added to the cells for 30 min at 4° C. (plates were kept in the dark). The plates were washed then cells were resuspended in 50 μl FACS Cell Fix (BD Bioscience, 340181) for 15 minutes, then washed and resuspended in 100 μl PBS containing 1 μg/ml DAPI (Biotium, 40043). The plates were read using Canto II flow cytometer (BD Bioscience). Dead cells were excluded and the fluorescence in the FITC channel (488 nm/530/30) was measured. The data was fit using log (agonist) vs response in GraphPad Prism Software. The plates were read on a BD FACSCanto II cytometer (BD Biosciences) and the data analysed using FlowJo.

Assay [9] addresses T5, murine PD-L1 expressed on cells (mouse, UniProt Q9EP73 19-290).
T5 construct: also called murine PD-L1 HEK
The assay is described as follows: flow cytometry on HEK cells expressing murine PD-L1. The method, then: as §2, with “The plates were washed then cells were resuspended in 50 μl FACS Cell Fix (BD Bioscience, 340181) for 15 minutes, then washed and resuspended in 100 μl PBS containing 1 μg/ml DAPI (Biotium, 40043).” left out, “The data was fit using log (agonist) vs response in GraphPad Prism Software.” left out

T5 sequence (Q9EP73 19-290 limits assumed): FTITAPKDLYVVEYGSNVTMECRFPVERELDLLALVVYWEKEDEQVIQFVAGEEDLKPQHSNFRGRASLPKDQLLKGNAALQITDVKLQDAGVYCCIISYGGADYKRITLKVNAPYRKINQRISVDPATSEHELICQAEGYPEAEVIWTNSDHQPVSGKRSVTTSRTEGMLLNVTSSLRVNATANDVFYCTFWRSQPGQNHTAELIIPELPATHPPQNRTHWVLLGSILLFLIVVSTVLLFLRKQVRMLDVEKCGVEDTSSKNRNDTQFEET

B1: anti-human PD-L1 mAb 84G09 with LALA mutation (antibody, human IgG1, kappa, L234A L235A)
heavy: not shown
light: DIQMTQSPSSLSASVGDRVTITCRASQSISSYLNWYQQKPGKAPKPLIYVASSLQSGVPSSFSGSGSGTDFTLTISSLQPEDFATYYCQQSYSNPITFGQGTRLEIKRTVAAPSVFIFPPSDEQLKSGTASVVCLLNNFYPREAKVQWKVDNALQSGNSQESVTEQDSKDSTYSLSSTLTLSKADYEKHKVYACEVTHQGLSSPVTKSFNRGEC
notes: Human IgG1 with LALA; also called 84G09LALA; 84G09 LALA
Broadly, the Kd is the concentration at which binding is half-saturated. The koff is the first-order rate constant of dissociation. Read a high koff as a short-lived complex. What is called kon is the rate constant with which the complex forms. Higher therefore signals faster complex formation. With B1, the binding result in assay [1] was “no binding”. Moreover, in [2], the dissociation constant Kd is 1.2 nM, the off-rate constant (koff) came out at 0.00046 s⁻¹ and the association rate constant (kon) was 380000 M⁻¹ s⁻¹.

B2: anti-mouse LAG-3 Fcab FS18-7-108-29 (designed binder)
chain: TCPPCPAPELLGGPSVFLFPPKPKDTLMISRTPEVTCVVVDVSHEDPEVKFNWYVDGVEVHNAKTKPREEQYNSTYRVVSVLTVLHQDWLNGKEYKCKVSNKALPAPIEKTISKAKGQPREPQVYTLPPSWDEPWGEDVSLTCLVKGFYPSDIVVEWESNGQPENNYKTTPPVLDSDGSFFLYSKLTVPFERWMWPDEFSCSVMHEALHNHYTQKSLSLSPG
notes: Fcab (truncated hinge, CH2, CH3)
Usually EC50 stands for the midpoint of the concentration-response curve. Read a low EC50 as higher potency in that assay. Usually IC50 stands for the point on the concentration scale where inhibition reaches its midpoint. For B2, the EC50 was 2.6 nM in [3] and 4.5 nM in assay [4]. The dissociation constant (Kd) in [5] is 1.5 nM. In addition, in [6], the IC50 stood at 0.6 nM.

B3: anti-human LAG-3 Fcab FS18-7-33 (designed binder)
chain: B2 chain with V154A, N165D, F190Y, E191D, M194V
Take B3: the half-maximal inhibitory concentration (IC50) in assay [7] turned out to be 2.6 nM.

B4: anti-human LAG-3 Fcab FS18-7-78 (designed binder)
chain: B2 chain with V154A, Q162Y, P163K, N165E, F190Y, E191D, M194V
On to B4, for which, in [7], the IC50 came to 2.4 nM.

B5: anti-mouse LAG-3 Fcab FS18-7-108-35 (designed binder)
chain: B2 chain with V154S
notes: as for B2
Consider B5, for which the concentration for a half-maximal effect (EC50) in [4] turned out to be 4.5 nM. Binding in [5] was put at a Kd of 2.1 nM. For the same molecule, in assay [6], the IC50 worked out at 0.7 nM.

B6: anti-mouse LAG-3/PD-L1 mAb2 FS18-7-108-29/S1 with LALA mutation (bispecific antibody)
heavy: not shown
light: DIQMTQSPSSLSASVGDRVTITCRASQDVSTAVAWYQQKPGKAPKLLIYSASFLYSGVPSRFSGSGSGTDFTLTISSLQPEDFATYYCQQYLFTPPTFGQGTKVEIKRTVAAPSVFIFPPSDEQLKSGTASVVCLLNNFYPREAKVQWKVDNALQSGNSQESVTEQDSKDSTYSLSSTLTLSKADYEKHKVYACEVTHQGLSSPVTKSFNRGEC
notes: also called FS18-29/S1
Take B6: the values for the concentration for a half-maximal effect (EC50) in assay [8] and in assay [9] were 2.27 nM and 11.9 nM, respectively.

B7: anti-mouse LAG-3/PD-L1 mAb2 FS18-7-108-35/S1 with LALA mutation (bispecific antibody)
heavy: not shown
light: B6 light
notes: also called FS18-35/S1
In the case of B7, the 50% effective concentration (EC50) turned out to be 3.84 nM in [8] and 12.3 nM in assay [9].
